T1: rhesus monkey iRhom2 (Macaca mulatta, UniProt F6Y4X6)
T1 construct: pMSCV-rhesus-iR2-FL-WT-T7 encoding rhesus monkey iRhom2 full length wild type; expressed in transfected cells; host or cells: immortalized iRhom1/2-/- DKO mouse embryonic fibroblasts, pMSCV retroviral infection
T1 sequence (F6Y4X6 1-827): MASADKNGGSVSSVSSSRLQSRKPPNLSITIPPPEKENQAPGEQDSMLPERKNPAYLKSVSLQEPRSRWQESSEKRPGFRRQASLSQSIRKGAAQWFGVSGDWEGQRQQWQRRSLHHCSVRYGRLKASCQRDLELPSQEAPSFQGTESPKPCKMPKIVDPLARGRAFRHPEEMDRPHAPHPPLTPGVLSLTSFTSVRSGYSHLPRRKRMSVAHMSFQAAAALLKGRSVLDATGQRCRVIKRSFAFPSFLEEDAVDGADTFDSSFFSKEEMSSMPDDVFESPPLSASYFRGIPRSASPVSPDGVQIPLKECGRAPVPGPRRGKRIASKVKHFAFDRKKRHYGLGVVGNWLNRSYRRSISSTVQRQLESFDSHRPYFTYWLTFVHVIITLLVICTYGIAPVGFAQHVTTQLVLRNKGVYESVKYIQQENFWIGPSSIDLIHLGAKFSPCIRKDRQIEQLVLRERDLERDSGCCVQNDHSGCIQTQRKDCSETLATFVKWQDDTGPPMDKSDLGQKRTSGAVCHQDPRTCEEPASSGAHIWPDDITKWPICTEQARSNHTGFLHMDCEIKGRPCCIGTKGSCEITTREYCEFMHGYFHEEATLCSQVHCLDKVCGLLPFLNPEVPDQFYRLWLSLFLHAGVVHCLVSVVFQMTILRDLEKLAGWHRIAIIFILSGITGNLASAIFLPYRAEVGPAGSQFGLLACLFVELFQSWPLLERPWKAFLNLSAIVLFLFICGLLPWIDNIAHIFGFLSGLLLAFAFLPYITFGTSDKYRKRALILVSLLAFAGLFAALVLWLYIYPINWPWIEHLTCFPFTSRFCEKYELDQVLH


What was measured:
dog iRhom1 = assay: FACS binding on MEF-DKO-Dog-iR1-FL-WT-T7 cells; settings: antibody at 3 μg/ml
Source text: (§1) Next, iRhom1/2−/− DKO MEFs stably expressing a tagged form of rhesus monkey, cynomolgus monkey, dog or rabbit iRhom2 were generated in order to determine cross-reactivity of the antibodies of the invention with the respective orthologue of iRhom2. iRhom1/2−/− DKO MEFs stably expressing a tagged form of rhesus monkey, cynomolgus monkey, dog or rabbit iRhom1 were generated to confirm specificity for iRhom2 versus iRhom1 of these species.
(§2) In brief, on day 1, Phoenix-ECO cells (American Type Culture Collection, USA) were seeded on 6-well tissue culture plates (Greiner, Germany) in standard growth medium at 8×10^5 cells per well and kept overnight at 37° C., 5% CO2. On day 2, the medium was replaced by fresh medium supplemented with chloroquine (Sigma-Aldrich, USA) at a final concentration of 25 μM. Applying the calcium phosphate method, cells were transfected with 2 μg/ml of pMSCV (Clontech, USA) empty vector, pMSCV-rhesus-iR2-FL-WT-T7 encoding rhesus monkey iRhom2 full length wild type C-terminally tagged with 3 consecutive copies of the T7 epitope, pMSCV-cyno-iR2-FL-WT-T7 encoding cynomolgus monkey iRhom2 full length wild type C-terminally tagged with 3 consecutive copies of the T7 epitope, pMSCV-dog-iR2-FL-WT-T7 encoding dog iRhom2 full length wild type C-terminally tagged with 3 consecutive copies of the T7 epitope or pMSCV-rabbit-iR2-FL-WT-T7 encoding rabbit iRhom2 full length wild type C-terminally tagged with 3 consecutive copies of the T7 epitope, respectively, and were kept at 37° C., 5% CO2. After 7 hours, the transfections were stopped by replacing cell supernatants with standard growth medium lacking chloroquine, and cells were incubated at 37° C., 5% CO2 to allow virus production overnight. In parallel, immortalized iRhom1/2−/− DKO MEFs as target cells for retroviral infection were seeded on 6-well tissue culture plates (Greiner, Germany) in standard growth medium at 1×10^5 cells per well and were also kept overnight at 37° C., 5% CO2. On day 3, the supernatants of Phoenix-ECO cells releasing pMSCV, pMSCV-rhesus-iR2-FL-WT-T7, pMSCV-cyno-iR2-FL-WT-T7, pMSCV-dog-iR2-FL-WT-T7 or pMSCV-rabbit-iR2-FL-WT-T7 ecotrophic virus, respectively were collected, filtered with 0.45 μm CA filters, and supplemented with 4 μg/ml of polybrene (Sigma-Aldrich, USA). Upon removal of medium from the immortalized iRhom1/2−/− DKO MEFs, the virus containing supernatants were added to the target cells for 4 hours at 37° C., 5% CO2 for first infection. Simultaneously, Phoenix-ECO cells were re-incubated with fresh medium, which, after another 4 hours, was filtered and used for the second infection of the respective target cell populations, again in the presence of 4 μg/ml of polybrene. Likewise, a third, but overnight infection cycle was performed. On day 4, virus containing cell supernatants were replaced by fresh standard growth medium. From day 5 onwards, cells were grown in the presence of 2 mg/ml of geneticin (G418, Thermo Fisher Scientific, USA) for the selection of immortalized MEF-DKO-EV control cells stably infected with pMSCV empty vector, pMSCV-rhesus-iR2-FL-WT-T7 cells stably expressing rhesus monkey iRhom2 full length wild type C-terminally tagged with 3 consecutive copies of the T7 epitope, pMSCV-cyno-iR2-FL-WT-T7 cells stably expressing cynomolgus monkey iRhom2 full length wild type C-terminally tagged with 3 consecutive copies of the T7 epitope, pMSCV-dog-iR2-FL-WT-T7 cells stably expressing dog iRhom2 full length wild type C-terminally tagged with 3 consecutive copies of the T7 epitope or pMSCV-rabbit-iR2-FL-WT-T7 cells stably expressing rabbit iRhom2 full length wild type C-terminally tagged with 3 consecutive copies of the T7 epitope, respectively. Upon propagation, cells were stocked for future usage. In parallel, iRhom1/2−/− DKO MEFs stably expressing a tagged form of rhesus monkey, cynomolgus monkey, dog or rabbit iRhom1 were generated in an analogous manner. […]

rhesus monkey iRhom2 = biological target: T1, rhesus monkey iRhom2; assay: FACS cross-reactivity on MEF-DKO-Rhesus-iR2-FL-WT-T7 cells; assay type: binding; settings: antibody at 3 μg/ml
Source text: as §1, §2

binding to rhesus monkey iRhom2 on MEF-DKO-Rhesus-iR2-FL-WT-T7 cells (rhesus monkey iRhom2)	Molecule	binding to dog iRhom1 on MEF-DKO-Dog-iR1-FL-WT-T7 cells (dog iRhom1)
Strong binding	16-B-03: humanized antibody binding human iRhom2; HCVD SEQ ID NO 1, LCVD SEQ ID NO 5 (antibody, V domains shown, antibody sequences) VH: QVTLRESGPALVKPTQTLTLTCTFSGFSLSTFALGVGWIRQPPGKALEWLAHIWWDDDKYYNPALKSRLTISKDTSKNQVVLTITNMDPVDTATYYCARITTYYYGMDYWGQGTLVTVSS VL: EIVMTQSPDFQSVTPKEKVTITCRASQSIGNHLHWYQQKPDASPKLLIKYASQSISGVPSRFSGSGSGTDFTLTINSLEAEDAATYFCQQSYQWPLTFGQGTKLEIK	no significant binding
recognize rhesus monkey iRhom2	16-B-07: humanized antibody binding human iRhom2; HCVD SEQ ID NO 17, LCVD SEQ ID NO 21 (antibody, V domains shown, antibody sequences) VH: QVTLRESGPALVKPTQTLTLTCTFSGFSLSTFALGVGWIRQPPGKALEWLAHIWWDEDKYYNPALKSRLTISKDTSKNQVVLTITNMDPVDTATYYCARITTYYYGMDYWGQGTLVTVSS VL: EIVMTQSPDFQSVTPKEKVTITCRASQSIGNHLHWYQQKPDASPKLLIKYASQSISGVPSRFSGSGSGTDFTLTINSLEAEDAATYFCQQSYQWPLTFGQGTKLEIK	do not recognize dog iRhom1
recognize rhesus monkey iRhom2	16-B-05: humanized antibody binding human iRhom2; HCVD SEQ ID NO 9, LCVD SEQ ID NO 13 (antibody, V domains shown, antibody sequences) VH: QVTLRESGPALVKPTQTLTLTCTFSGFSLSTFALGVGWIRQPPGKALEWLAHIWWDEDKYYNPALKSRLTISKDTSKNQVVLTITNMDPVDTATYYCARITTYYYGMDYWGQGTLVTVSS VL: EIVMTQSPDFQSVTPKEKVTITCRASQSIGNHLHWYQQKPDASPKLLIKYASQSISGVPSRFSGSGSGTDFTLTINSLEAEDAATYFCQQSYNWPLTFGQGTKLEIK	do not recognize dog iRhom1
recognize rhesus monkey iRhom2	23-B-04: humanized antibody binding human iRhom2; HCVD SEQ ID NO 25, LCVD SEQ ID NO 29 (antibody, V domains shown, antibody sequences) VH: QVTLRESGPALVKPTQTLTLTCTFSGFSLSTFGMGVGWIRQPPGKALEWLAHIWWDDEKYYNSALKSRLTISKDTSKNQVVLTITNMDPVDTATYYCARISNYGSNYWYFNVWGQGTLVTVSS VL: AIQLTQSPSSLSASVGDRVTITCRASSSVSYMYWYQQKPGKAPKVLIYDTSNLASGVPSRFSGSGSGTDYTLTISSLQPEDFATYYCQQWNAYPLTFGQGTKLEIK	do not recognize dog iRhom1
recognize rhesus monkey iRhom2	42-B-02: humanized antibody binding human iRhom2; HCVD SEQ ID NO 33, LCVD SEQ ID NO 37 (antibody, V domains shown, antibody sequences) VH: QVTLRESGPALVKPTQTLTLTCTFSGFSLSTFGRGVGWIRQPPGKALEWLAHIWWDDEKYYNSALKSRLTISKDTSKNQVVLTITNMDPVDTATYYCARIQNYGSNYWYFDVWGQGTLVTVSS VL: AIQLTQSPSSLSASVGDRVTITCRASSRISYMFWYQQKPGKAPKVLIYDTSNLASGVPSRFSGSGSGTDYTLTISSLQPEDFATYYCQQWNSYPLTFGQGTKLEIK	do not recognize dog iRhom1
recognize rhesus monkey iRhom2	42-B-04: humanized antibody binding human iRhom2; HCVD SEQ ID NO 41, LCVD SEQ ID NO 45 (antibody, V domains shown, antibody sequences) VH: QVTLRESGPALVKPTQTLTLTCTFSGFSLSTFGRGVGWIRQPPGKALEWLAHIWWDDEKYYNSALKSRLTISKDTSKNQVVLTITNMDPVDTATYYCARIQNYGSNYWYFDVWGQGTLVTVSS VL: AIQLTQSPSSLSASVGDRVTITCRASSRISYMFWYQQKPGKAPKVLIYDTSNLASGVPSRFSGSGSGTDYTLTISSLQPEDFATYYCQQWNAYPLTFGQGTKLEIK	do not recognize dog iRhom1

— patent publication US12404345B2, “Humanized antibodies against iRHOM2” (SCIRHOM GMBH, priority 2021, dated 2025)
